Values of other authors as cited in paper PMC8745658.

Biological target: Cytochrome b5 soluble isoform (Homo sapiens) (UniProt P00167)
Assay: flavin autofluorescence

Sequence of UniProt P00167 (P00167 2-98): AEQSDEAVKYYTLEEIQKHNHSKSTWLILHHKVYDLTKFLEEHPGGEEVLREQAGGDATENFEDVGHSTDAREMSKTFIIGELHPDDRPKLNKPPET

Kd: 500 nM
Substance: Cytochrome b5 reductase soluble isoform (from UniProt P00387)
